Reference: the supplement of paper PMC5998384

What was measured:
[1] = system: HeLa Kyoto; assay: solubility in G1/S (NP-40 vs SDS abundance) (log2 ratio); higher = more soluble; details: cell cycle stage: G1/S
[2] = system: HeLa Kyoto; assay: melting temperature (median over replicates), in situ; higher = more thermally stable
[3] = system: HeLa Kyoto; assay: solubility change mitosis vs G1/S (difference of NP-40 vs SDS log2 ratios) (log2 ratio difference); higher = more soluble in mitosis
[4] = system: HeLa Kyoto; assay: thermal stability score vs G1/S (z-score of summed log2 fold changes over temperatures); higher = more thermally stable than in G1/S
[5] = cell cycle stage: early G1 (4.5 h after nocodazole release)
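Wherever melting temperature (median over replicates), in situ is given: HeLa Kyoto cells synchronized by double thymidine or nocodazole block, proteins quantified by TMT10plex mass spectrometry, three independent biological replicates.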
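Wherever solubility change mitosis vs G1/S (difference of NP-40 vs SDS log2 ratios) is given: synchronized HeLa Kyoto cells (double thymidine block for G1/S, nocodazole release for mitosis), protein amounts in NP-40 versus SDS lysates quantified by mass spectrometry, three biological replicates.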
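Wherever solubility in G1/S (NP-40 vs SDS abundance) is given: HeLa Kyoto cells arrested at G1/S by double thymidine block, proteins quantified by TMT10plex mass spectrometry in mild NP-40 versus SDS extracts, three biological replicates.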
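Wherever thermal stability score vs G1/S (z-score of summed log2 fold changes over temperatures) is given: synchronized HeLa Kyoto cells, proteins quantified by TMT10plex mass spectrometry, three biological replicates, mitosis taken 0.5 h after nocodazole release, G1/S directly after double thymidine block.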

Sequence of ADCK3 (chain, as listed by the source): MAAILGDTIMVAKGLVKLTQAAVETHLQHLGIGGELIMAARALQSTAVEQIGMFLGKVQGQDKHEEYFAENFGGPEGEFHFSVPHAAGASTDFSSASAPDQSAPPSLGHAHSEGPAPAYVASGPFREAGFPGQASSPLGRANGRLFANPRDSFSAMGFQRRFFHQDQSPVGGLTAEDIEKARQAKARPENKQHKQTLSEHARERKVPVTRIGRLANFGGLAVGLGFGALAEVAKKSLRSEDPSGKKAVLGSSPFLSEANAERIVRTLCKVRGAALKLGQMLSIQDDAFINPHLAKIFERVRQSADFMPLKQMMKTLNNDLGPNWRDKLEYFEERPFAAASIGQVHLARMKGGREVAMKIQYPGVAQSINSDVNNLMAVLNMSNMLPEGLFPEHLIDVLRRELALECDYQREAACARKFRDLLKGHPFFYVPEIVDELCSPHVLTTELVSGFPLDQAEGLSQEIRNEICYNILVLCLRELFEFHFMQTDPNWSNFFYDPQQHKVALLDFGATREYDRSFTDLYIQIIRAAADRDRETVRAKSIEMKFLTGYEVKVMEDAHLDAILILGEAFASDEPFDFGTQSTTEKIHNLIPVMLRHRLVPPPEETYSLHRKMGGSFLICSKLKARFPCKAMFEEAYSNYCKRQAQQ
Sequence of CKB (chain, as listed by the source): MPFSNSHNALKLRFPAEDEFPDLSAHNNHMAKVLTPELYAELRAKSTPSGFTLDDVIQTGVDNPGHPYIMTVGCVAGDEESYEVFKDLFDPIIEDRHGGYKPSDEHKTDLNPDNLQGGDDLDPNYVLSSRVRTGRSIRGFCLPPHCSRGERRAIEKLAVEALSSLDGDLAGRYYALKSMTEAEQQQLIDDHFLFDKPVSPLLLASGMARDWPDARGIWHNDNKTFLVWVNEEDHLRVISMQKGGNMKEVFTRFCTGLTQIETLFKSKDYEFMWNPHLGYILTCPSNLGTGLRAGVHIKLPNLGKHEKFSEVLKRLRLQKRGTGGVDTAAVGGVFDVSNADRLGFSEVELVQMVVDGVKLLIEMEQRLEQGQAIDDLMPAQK
Sequence of CHMP5 (chain, as listed by the source): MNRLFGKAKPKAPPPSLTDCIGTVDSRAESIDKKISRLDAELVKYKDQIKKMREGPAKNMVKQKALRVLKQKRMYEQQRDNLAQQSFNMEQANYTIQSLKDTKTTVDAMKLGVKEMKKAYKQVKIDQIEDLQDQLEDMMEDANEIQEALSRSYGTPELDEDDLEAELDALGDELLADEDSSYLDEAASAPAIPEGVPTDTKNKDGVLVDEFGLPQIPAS
Sequence of CTSD (chain, as listed by the source): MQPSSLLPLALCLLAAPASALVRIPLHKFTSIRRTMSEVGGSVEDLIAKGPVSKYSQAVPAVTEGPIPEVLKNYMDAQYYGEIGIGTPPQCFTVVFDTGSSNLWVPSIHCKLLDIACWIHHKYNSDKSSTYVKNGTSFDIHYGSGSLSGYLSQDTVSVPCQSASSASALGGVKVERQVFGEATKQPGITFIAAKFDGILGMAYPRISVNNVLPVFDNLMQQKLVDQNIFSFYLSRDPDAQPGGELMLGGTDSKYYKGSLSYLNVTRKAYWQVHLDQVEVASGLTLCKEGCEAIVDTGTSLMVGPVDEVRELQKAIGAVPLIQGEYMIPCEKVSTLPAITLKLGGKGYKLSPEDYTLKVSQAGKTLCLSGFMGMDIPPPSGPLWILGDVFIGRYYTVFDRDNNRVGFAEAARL
Sequence of CCBL2 (chain, as listed by the source): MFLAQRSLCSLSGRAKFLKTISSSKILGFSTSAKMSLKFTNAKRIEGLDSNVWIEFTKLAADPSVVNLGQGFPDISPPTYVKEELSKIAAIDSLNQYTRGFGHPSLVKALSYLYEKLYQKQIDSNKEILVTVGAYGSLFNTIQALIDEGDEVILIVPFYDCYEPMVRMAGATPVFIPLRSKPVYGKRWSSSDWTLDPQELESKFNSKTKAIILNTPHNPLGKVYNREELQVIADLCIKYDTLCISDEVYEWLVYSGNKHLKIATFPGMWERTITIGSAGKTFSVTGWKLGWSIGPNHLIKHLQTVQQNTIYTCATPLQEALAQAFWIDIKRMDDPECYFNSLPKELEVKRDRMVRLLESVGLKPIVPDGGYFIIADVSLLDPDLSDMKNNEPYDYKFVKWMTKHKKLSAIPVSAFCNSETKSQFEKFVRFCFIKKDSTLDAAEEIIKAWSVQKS
Sequence of ARHGAP4 (chain, as listed by the source): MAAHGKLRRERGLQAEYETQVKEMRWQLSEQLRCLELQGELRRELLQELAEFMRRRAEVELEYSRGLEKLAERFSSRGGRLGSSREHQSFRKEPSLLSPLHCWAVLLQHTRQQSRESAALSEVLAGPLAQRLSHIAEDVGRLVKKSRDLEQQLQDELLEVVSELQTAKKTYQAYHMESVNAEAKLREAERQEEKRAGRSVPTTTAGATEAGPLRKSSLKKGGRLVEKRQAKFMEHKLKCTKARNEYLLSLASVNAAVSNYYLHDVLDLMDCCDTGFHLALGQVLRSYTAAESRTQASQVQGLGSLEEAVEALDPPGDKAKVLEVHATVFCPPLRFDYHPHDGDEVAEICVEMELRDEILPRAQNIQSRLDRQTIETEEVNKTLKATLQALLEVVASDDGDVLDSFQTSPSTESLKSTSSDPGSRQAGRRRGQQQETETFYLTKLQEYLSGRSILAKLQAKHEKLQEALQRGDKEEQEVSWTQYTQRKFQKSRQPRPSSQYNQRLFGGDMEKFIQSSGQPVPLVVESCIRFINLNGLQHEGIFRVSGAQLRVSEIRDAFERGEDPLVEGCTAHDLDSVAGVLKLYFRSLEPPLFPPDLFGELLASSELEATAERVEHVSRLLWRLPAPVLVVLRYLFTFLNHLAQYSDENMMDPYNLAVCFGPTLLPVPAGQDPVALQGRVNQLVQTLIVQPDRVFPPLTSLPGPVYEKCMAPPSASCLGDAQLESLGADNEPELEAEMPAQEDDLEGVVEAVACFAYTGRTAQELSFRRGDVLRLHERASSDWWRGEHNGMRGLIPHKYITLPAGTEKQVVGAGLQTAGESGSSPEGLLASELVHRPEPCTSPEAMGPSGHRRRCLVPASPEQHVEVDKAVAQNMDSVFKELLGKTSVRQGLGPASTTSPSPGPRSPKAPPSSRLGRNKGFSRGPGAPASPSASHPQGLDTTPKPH
Sequence of CLIC4 (chain, as listed by the source): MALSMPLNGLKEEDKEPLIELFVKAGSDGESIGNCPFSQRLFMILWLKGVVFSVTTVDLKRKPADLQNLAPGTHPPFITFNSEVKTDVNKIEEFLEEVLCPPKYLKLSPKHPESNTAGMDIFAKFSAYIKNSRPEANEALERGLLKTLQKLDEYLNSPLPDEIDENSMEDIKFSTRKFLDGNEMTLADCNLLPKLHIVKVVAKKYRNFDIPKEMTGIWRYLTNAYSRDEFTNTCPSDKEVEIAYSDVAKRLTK
Sequence of CBX3 (chain, as listed by the source): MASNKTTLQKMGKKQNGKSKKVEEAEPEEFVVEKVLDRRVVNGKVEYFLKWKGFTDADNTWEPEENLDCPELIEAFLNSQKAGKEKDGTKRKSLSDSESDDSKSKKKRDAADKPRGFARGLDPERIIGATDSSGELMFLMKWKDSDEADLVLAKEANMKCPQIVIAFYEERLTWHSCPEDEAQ
Sequence of CTDSPL2 (chain, as listed by the source): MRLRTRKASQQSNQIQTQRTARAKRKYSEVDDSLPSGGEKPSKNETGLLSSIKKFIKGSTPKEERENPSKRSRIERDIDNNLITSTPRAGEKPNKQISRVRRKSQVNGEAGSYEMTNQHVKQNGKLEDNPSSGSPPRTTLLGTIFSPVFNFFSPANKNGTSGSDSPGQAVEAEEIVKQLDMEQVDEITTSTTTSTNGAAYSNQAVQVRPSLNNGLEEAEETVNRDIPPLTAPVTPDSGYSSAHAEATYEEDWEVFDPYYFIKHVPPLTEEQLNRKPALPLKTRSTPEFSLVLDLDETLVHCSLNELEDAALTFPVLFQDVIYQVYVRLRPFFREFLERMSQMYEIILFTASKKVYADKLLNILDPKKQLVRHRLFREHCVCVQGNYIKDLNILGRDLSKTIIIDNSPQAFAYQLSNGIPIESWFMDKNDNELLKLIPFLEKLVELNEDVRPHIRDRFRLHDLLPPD
Sequence of AKAP8 (chain, as listed by the source): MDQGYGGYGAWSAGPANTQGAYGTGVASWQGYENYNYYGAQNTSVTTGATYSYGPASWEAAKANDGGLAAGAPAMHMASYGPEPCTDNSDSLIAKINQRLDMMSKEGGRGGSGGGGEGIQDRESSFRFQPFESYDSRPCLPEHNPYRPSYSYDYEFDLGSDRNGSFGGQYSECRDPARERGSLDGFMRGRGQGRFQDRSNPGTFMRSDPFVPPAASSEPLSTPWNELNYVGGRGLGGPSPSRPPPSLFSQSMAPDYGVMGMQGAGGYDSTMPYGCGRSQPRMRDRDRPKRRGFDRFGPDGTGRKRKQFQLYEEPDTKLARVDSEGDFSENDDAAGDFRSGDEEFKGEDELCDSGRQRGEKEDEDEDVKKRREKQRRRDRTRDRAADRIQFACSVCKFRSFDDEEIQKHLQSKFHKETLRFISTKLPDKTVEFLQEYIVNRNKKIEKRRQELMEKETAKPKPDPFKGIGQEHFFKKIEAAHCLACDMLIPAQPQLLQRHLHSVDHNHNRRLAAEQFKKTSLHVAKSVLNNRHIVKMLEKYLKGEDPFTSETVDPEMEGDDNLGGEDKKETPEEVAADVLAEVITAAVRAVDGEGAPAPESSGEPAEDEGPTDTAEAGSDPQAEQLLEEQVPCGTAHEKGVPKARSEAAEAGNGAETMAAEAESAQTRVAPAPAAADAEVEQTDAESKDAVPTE
Sequence of CHAC2 (chain, as listed by the source): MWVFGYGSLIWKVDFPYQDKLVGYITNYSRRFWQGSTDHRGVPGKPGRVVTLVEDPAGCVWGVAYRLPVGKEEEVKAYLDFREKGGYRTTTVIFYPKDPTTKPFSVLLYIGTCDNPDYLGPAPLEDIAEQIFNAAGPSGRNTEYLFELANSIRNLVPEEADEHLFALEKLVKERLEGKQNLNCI

Substance	solubility in G1/S (log2) [1]	melting temperature ([2]; cell cycle stage: G1/S)	melting temperature ([2]; cell cycle stage: mitosis)	solubility change mitosis (log2) [3]	thermal stability score [4, 5]	thermal stability score ([4]; cell cycle stage: mitosis)
ABCD1	-0.353	49.9 °C	49.7 °C	-0.0995	0.954	0.963
ABCF1	-0.133	52.7 °C	52.3 °C	0.0453	-2.34	-2.94
ADCK3	0.231	51.1 °C	50 °C	-0.0659	0.477	-0.51
AHNAK2	0.073	53 °C	53.5 °C	-0.0597	0.749	3.16
AKAP8	-0.14	49 °C	49.8 °C	0.113	1.87	2.22
ANKRD17	-0.13	49.8 °C	49.9 °C	0.0244	-0.291	0.712
ANTXR1	0.0506	55 °C	55 °C	0.0236	-1.21	-3.82
APOB	-0.404	57.6 °C	55.5 °C	0.0239	-3.15	-0.312
APTX	-0.219	48.5 °C	50.7 °C	0.0501	0.58	1.59
ARFGEF1	-0.319	50.8 °C	50.1 °C	-0.109	0.51	0.0301
ARHGAP4	0.0702	52.5 °C	50.3 °C	-0.000167	0.224	0.251
ARHGAP21	-0.453	47.6 °C	50.2 °C	0.156	0.0615	0.748
ARID1B	-0.143	48.8 °C	50.2 °C	0.0332	0.573	1.11
ASCC1	-0.115	50.3 °C	50.7 °C	0.0348	1.88	1.1
ATM	-0.339	51.7 °C	51.3 °C	-0.141	0.333	0.0333
ATRX	-1.33	49.2 °C	51.4 °C	0.492	-0.452	0.516
CBX1	-0.629	51.2 °C	52.8 °C	0.55	2.04	1.13
CBX3	-0.141	49.9 °C	50.9 °C	0.672	0.789	1.67
CCBL2	0.16	57.2 °C	57.5 °C	-0.21	-0.947	-1.75

Substance	solubility in G1/S (log2) [1]	melting temperature ([2]; cell cycle stage: G1/S)	melting temperature ([2]; cell cycle stage: mitosis)	solubility change mitosis (log2) [3]	thermal stability score [4, 5]	thermal stability score ([4]; cell cycle stage: mitosis)
CDC42BPB	-0.234	51 °C	50.6 °C	-0.105	0.874	0.582
CDK12	-0.473	50.9 °C	52.5 °C	0.238	-0.391	0.677
CHAC2	0.541	53 °C	51.9 °C	-0.0779	0.759	0.354
CHD3	-0.643	46.5 °C	49.1 °C	0.14	0.67	1.73
CHID1	-0.16	53.4 °C	54 °C	-0.0199	0.711	2.28
CHMP5	0.437	55.2 °C	52.2 °C	0.751	-3.8	-3.3
CKB	0.651	51 °C	51.3 °C	-0.115	1.63	2
CLIC4	0.409	52.1 °C	52.5 °C	-0.146	-0.344	0.497
COL12A1	-0.1	53.8 °C	54.9 °C	-0.124	4.88	5.9
CPS1	0.0669	53.1 °C	53.2 °C	-0.13	-0.953	-3.38
CTDSPL2	-0.599	48.4 °C	48.7 °C	0.46	2.66	4.58
CTSD	0.272	56.2 °C	57 °C	-0.113	1.02	-1.76
CUL7	0.0417		49.1 °C	-0.279	0.604	0.125
CXORF56	-0.0564	50.6 °C	51.3 °C	0.1	-1.87	-1.28
DNAJA1	-0.016	51.8 °C	52.1 °C	0.000386	-1.37	-1.92
DNAJB4	0.0979	49.3 °C	49.5 °C	0.0771	1.4	0.454
DNAJC21	-0.451	50.7 °C	49.9 °C	0.168	2.06	1.36
DNMBP	0.00933	48.8 °C	49 °C	-0.133	-0.0907	0.88
